This test addresses T1, mouse core RAG1 (384–1008aa) (mouse, UniProt P15919 384-1008).
T1 sequence (looked up): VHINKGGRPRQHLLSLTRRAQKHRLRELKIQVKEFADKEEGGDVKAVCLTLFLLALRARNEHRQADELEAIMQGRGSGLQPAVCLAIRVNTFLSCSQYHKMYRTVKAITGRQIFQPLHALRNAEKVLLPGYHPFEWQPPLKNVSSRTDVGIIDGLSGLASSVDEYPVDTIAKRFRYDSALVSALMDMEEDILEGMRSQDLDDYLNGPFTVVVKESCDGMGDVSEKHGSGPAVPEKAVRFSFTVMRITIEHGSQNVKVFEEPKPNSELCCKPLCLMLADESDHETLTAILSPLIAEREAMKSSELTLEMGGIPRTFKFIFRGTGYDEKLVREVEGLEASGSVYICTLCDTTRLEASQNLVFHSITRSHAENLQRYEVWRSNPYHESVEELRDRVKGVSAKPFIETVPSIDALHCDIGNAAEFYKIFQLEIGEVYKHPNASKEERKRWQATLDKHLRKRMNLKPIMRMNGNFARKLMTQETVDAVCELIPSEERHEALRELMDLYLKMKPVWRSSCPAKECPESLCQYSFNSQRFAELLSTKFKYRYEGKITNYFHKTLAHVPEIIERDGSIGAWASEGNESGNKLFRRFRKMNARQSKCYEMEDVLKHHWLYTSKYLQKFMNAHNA
The test is described as follows: crystal structure.

B1: mouse core RAG2 (1–387aa), M1V (domain or fragment, UniProt P21784 1-387, looked up)
chain: VSLQMVTVGHNIALIQPGFSLMNFDGQVFFFGQKGWPKRSCPTGVFHFDIKQNHLKLKPAIFSKDSCYLPPLRYPATCSYKGSIDSDKHQYIIHGGKTPNNELSDKIYIMSVACKNNKKVTFRCTEKDLVGDVPEPRYGHSIDVVYSRGKSMGVLFGGRSYMPSTQRTTEKWNSVADCLPHVFLIDFEFGCATSYILPELQDGLSFHVSIARNDTVYILGGHSLASNIRPANLYRIRVDLPLGTPAVNCTVLPGGISVSSAILTQTNNDEFVIVGGYQLENQKRMVCSLVSLGDNTIEISEMETPDWTSDIKHSKIWFGSNMGNGTIFLGIPGDNKQAMSEAFYFYTLRCSEEDLSEDQKIVSNSQTSTEDPGDSTPFEDSEEFCFS
In the case of B1, the binding result was “binds”.
